# Legend:
# [1] = biological target: T1, His and avidin-tagged 3RTau (352), recombinant full length 3R Tau protein (UniProt P10636-2 2-352, limits assumed); assay: ELISA and immunoblot
# T1 construct: mature; Used for phage panning, ELISA (immobilized) and immunoblot; The His and avidin tags are not described further; also called 3RT protein; 3-repeat Tau
# [2] = biological target: T2, tau352 (human tau isoform 352, 15N-labelled, His tag removed by TEV cleavage) (human, UniProt P10636-2 2-352); assay: 2D 1H-15N HSQC NMR, about 1:1 molar ratio
# T2 construct: mature; Uniformly 15N-labelled for NMR
# T2 sequence (P10636 other isoform, or with tags, fused parts or gaps): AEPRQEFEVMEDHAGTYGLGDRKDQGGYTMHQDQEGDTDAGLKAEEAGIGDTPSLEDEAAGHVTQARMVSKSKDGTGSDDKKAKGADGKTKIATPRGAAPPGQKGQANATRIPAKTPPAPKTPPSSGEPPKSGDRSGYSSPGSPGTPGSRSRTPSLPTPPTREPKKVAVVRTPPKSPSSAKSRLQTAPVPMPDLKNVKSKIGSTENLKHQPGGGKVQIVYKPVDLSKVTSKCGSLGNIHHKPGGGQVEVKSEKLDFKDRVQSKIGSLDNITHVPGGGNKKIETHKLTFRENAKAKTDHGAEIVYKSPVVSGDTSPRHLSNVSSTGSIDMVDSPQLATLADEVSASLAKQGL
# Description: The interaction between scFv and tau352 was further studied by NMR spectroscopy. For this purpose, tau352 and 3RT antibody were recombinantly expressed in E. coli and HEK293 cells, respectively. 2D ¹H-¹⁵N heteronuclear single quantum coherence (HSQC) spectra were recorded on tau352 in absence and presence of 3RT antibody (FIG. 10A). The HSQC of tau352 has a narrow chemical shift dispersion indicative of an intrinsically disordered protein (FIG. 10A).
# NMR experiments were recorded on a Bruker Avance 800 MHz spectrometer with 5% D₂O as lock solvent at 25° C. The 2D ¹H-¹⁵N HSQC experiments were recorded on a […] ¹⁵N labeled tau352 sample, for the interaction measurement an approximate 1:1 molar ratio between tau352 and scFv was used. For the 2D ¹⁵N HSQC, 512 data points were recorded in the indirect dimension with 128 scans per point for free tau352 and scFv-bound tau352.
# T1 sequence (P10636 other isoform, or with tags, fused parts or gaps limits assumed): as the sequence (P10636 other isoform, or with tags, fused parts or gaps) above
binder,measurement,setting,value
"3RT single chain antibody (Clone 5F10) (scFv, Human scFv from a phage display library; It was expressed from mammalian scFV cassettes; also called 3RT scFV; 3RTau scFV) scFv: MEQVNLRESGAEVKKPGASVKVSCKVSGYTFTGYYMHWVRQAPGQGLEWMGWINSNSGATKYAQKFQGRVTMTRDTSITTAYMELSSLRSDDTAVYYCARGARDGYGFDYWGQGTLVTVLAGGGGSGGGGSGGGGSGAPSYVLTQPPSASGTPGQRVTISCSGGSSNIGSNAVSWYQQLPGTAPKLLIFTNDQRPSGVPDRFSGSKSGTSAPLAISGLQSEDESDYYCATWDDSLNGWVFGGGTKVTVRS",binding result,[1],binds
same,binding result,[2],binds

# Reference: patent US20200181245A1 (University of California, published 2020)
